Results: publication PMC2408963, “A Detailed Analysis of the Murine TAP Transporter Substrate Specificity” (PLoS ONE, 2008)
Where no end group is shown, it is not given here.

Tests used:
[1] = test system: murine TAP1 or TAP2 protein alone
Excerpt: Using the same insect cell system for TAP expression, a novel assay was established which is based on detecting fluorescence polarization rather than the activity of a radioactive tracer. […] To establish a fluorescence polarization assay, we determined the concentrations of reporter peptide and microsomes yielding the highest specific binding signal (mP reading).

[2] = test system: human TAP complexes; test: Fluorescence polarization assay with insect cell-expressed human TAP; assay type: binding

R9L-FITC: reporter peptide in which position 6 (Ser) of R9L was substituted by a Cys residue coupled to a fluorescein group (RRYNAC(fluorescein)TEL)
binding to microsomes containing either murine TAP1 or TAP2 protein alone [1]: did not bind | affinity for human TAP compared with murine TAP [2]: identical affinity
